From patent publication EP4810056A2

Target: PD-1 (programmed death 1) on peripheral CD4 T cells of treated subjects (human) (UniProt Q15116)
Experiment: flow cytometry of free PD-1 on CD4 T cells of subjects after IV MEDI5752 (receptor occupancy, in vivo dosing >225 mg)

Chain of UniProt Q15116 (Q15116 25-288): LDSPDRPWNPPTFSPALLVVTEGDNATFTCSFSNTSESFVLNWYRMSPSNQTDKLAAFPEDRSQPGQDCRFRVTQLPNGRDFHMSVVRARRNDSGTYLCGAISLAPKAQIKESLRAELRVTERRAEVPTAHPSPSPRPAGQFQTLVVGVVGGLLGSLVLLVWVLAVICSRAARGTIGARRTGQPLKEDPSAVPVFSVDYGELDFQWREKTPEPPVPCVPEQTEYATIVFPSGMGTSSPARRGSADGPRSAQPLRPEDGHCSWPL

MEDI5752 (bispecific antibody)
peripheral PD-1 receptor occupancy: > 90%
